Two proteins from article PMC3299833 (Molecular Cell, 2012) can be followed below.

Series [1] deals with the molecule itself. Briefly: SEC. A general note: In gel filtration, larger molecules generally elute earlier.
Series [2] deals with the molecule itself. Kind of series: SEC. This is another data set of the same source.

Like-named read-outs stand apart in the source and are kept apart here.

B1: HA-R399E (HA-tagged PKM2 mutant R399E expressed in SW480 cells) (enzyme)
chain: not shown
The term stoichiometry N denotes a count of units in the complex or per binding partner. With B1, the “stoichiometry N” value in the series “SEC [1]” amounted to 2.

B2: Recombinant PKM2 mutant R399E (enzyme)
chain: not shown
Regarding B2, the “stoichiometry N” value in the series “SEC [2]” amounted to 2.
